Experimental data published in PMC10583499.

Target: human NRP2 (v2, NM_003872.3), untagged, stably overexpressed on Expi293F cells (Expi293F-hNRP2) (human) (UniProt O60462)
Test: flow cytometry on cells

## human Sema3F (amino acids 19 to 779), N-terminal 6xHis-Myc tag, R583A R586A (from UniProt Q13275 19-779) (ligand)
  EC50: 5.7 nM
